Article doi:10.1101/2024.12.12.628104 (bioRxiv, 2024)

Target: the molecule itself
Experiment: […]; 50 uM, […], pH 6.9; […]

B1: Francisella tularensis dihydrolipoyl dehydrogenase (IPD) (enzyme)
chain: MSDIKTQVVVLGSGPGGYSAAFRAADLGLEVVLVERYAEIGGVCLNVGCIPSKAMLHIAKVINEARHLESLGIIEMGGLKINRENLLKYKDGVIGKLTGGLKGMAQMRKVKIVQGYGKFTSDKELAVEAADGKVTKIAFDNCIIAAGSSVIKLPFVPEDDRIIDSTGALEMKEIPETMLVVGGGIIGLEMAQVYSELGTKITVVEFADQLMNGVDKDLVKAYQKVNSRYDVRLKTAVTAMEAKEDGIYVTMEGDHPAKDERFDRVLMAIGRKPNGKLIDAEKAGVKVDERGFIPVDKQLRTNVPHIFAIGDIVGQPMLAHKAVPEGRTAAEVISGLNHSFDPLVIPSVAYTDPEVAWVGETETSAKAKGIKYEKGVFPWAASGRSLSIDRSEGMTKILFDENHKIIGASIVGTHAGELISEAAIAIEMGCDAEDIALTVHPHPTLSESLMMATEVYEGTATDLPPQKKKK
notes: also called dihydroprolyl dehydrogenase; Francisella IPD
Question: For B1, which “stoichiometry N” value is on record?
Answer: 2
